Article PMC9613699

Assay: western blot, endogenous PD-L1 in RBMS1-depleted MDA-MB-231, ±IFN-γ
Conditions: glycan lost; control: untreated

Question: For “PD-L1 (programmed death ligand 1; B7-H1, CD274): tunicamycin”, which “other: dependence of PD-L1 protein level on RBMS1” value is on record?
Answer: Its value is “abolishes”.
